From patent US20190338002A1 (Pieris, published 2019)
Positions count from the first letter of the chain named.

T1: rat alpha CGRP (SEQ ID NO: 82) (rat)
T1 construct: also called rat αCGRP; rat α-CGRP
T1 peptide: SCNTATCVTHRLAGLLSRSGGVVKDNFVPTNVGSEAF

T2: human beta CGRP (SEQ ID NO: 81) (human, not fully specified)
T2 construct: also called human βCGRP; hβCGRP
T2 peptide: T1 peptide with S1A, V22M, D25S, E35K

T3: rat beta CGRP (SEQ ID NO: 83) (rat, not fully specified)
T3 construct: also called rat βCGRP; rat β-CGRP
T3 peptide: T1 peptide with E35K

T4: human alpha CGRP (SEQ ID NO: 80) (human, not fully specified)
T4 construct: also called human αCGRP; hαCGRP
T4 peptide: T1 peptide with S1A, N3D, D25N, E35K

B1: lipocalin mutein SEQ ID NO: 17 (designed binder)
chain: QDSTSDLIPAPPLSKVPLQQNFQDNQFHGKWYVVGRAGNDVLREDKDPEKMEATIYELKEDKSYNVTDVGFVQKRCMYVTHTFVPGSQPGEFTLGNIESYPGVTSALVRVVSTDYNQHAMVFVKLVKQNRELFEITLYGRTKELTSELKENFIRFSKSLGLPENHIVFPVPIDQCIDGSAWSHPQFEK
notes: biotinylated by NHS chemistry for capture in SPR
B2: lipocalin mutein SEQ ID NO: 19 (designed binder)
chain: B1 chain with V41T, F71L, R75K, T80I, E98K, D114N, N129S
notes: as for B1
B3: lipocalin mutein SEQ ID NO: 20 (designed binder)
chain: B1 chain with V41T, E44K, R75K, T80I, E98K, D114N
notes: as for B1
B4: lipocalin mutein SEQ ID NO: 25 (designed binder)
chain: QDSTSDLIPAPPLSKVPLQQNFQDNQFHGKWYVVGWAGNTLLREDKDPIKMQAKIYELKEDRSYNVTWVYFADKKCNYHIETFVPGSQPGEFTLGTIKSYPGETPILVRVVSTNYNQHAMVFFKGVNQNREIFEIILYGRTKELTNELKENFIRFSKSLGLPENHIVFPVPIDQCIDGSAWSHPQFEK
notes: as for B1
B5: lipocalin mutein SEQ ID NO: 27 (designed binder)
chain: B4 chain with K54M, R62K, I136V
notes: as for B1
B6: lipocalin mutein SEQ ID NO: 26 (designed binder)
chain: B4 chain with N77R, Y100H
notes: as for B1
B7: lipocalin mutein SEQ ID NO: 24 (designed binder)
chain: B4 chain with D73E
notes: as for B1
B8: lipocalin mutein SEQ ID NO: 23 (designed binder)
chain: B4 chain with T96L
notes: as for B1
B9: lipocalin mutein SEQ ID NO: 18 (designed binder)
chain: B1 chain with G38A, E44D, K46N, R75K, T80V, E98K, D114N, V123F, I135V
B10: cysteine-free lipocalin mutein SEQ ID NO: 29 (designed binder)
chain: QDSTSDLIPAPPLSKVPLQQNFQDNQFQGKWYVVGRAGNDVLREDKDPEKMEATIYELKEDKSYNVTDVGFVQKRLMYVTHTFVPGSQPGEFTLGNIESYPGVTSALVRVVSTDYNQHAMVFVKLVKQNRELFEITLYGRTKELTSELKENFIRFSKSLGLPENHIVFPVPIDQIDGSAWSHPQFEK
notes: as for B1
B11: cysteine-free lipocalin mutein SEQ ID NO: 30 (designed binder)
chain: B10 chain with L76Y
notes: as for B1

Biological target: T1, rat alpha CGRP (SEQ ID NO: 82)
Experiment: SPR, 37 C, mutein captured, CGRP analyte
Protocol: (§1) The Biotin CAPture Kit (GE Healthcare) was used to immobilize biotinylated lipocalin muteins to a chip surface. Muteins were biotinylated using standard NHS chemistry. Undiluted Biotin CAPture Reagent (streptavidin conjugated with ss-DNA oligo) was captured on a Sensor Chip CAP with the pre-immobilized complementary ss-DNA oligo. Thereafter, biotinylated muteins at 1 μg/mL were applied for 300 s at a flow rate of 5 μL/min.
(§2) CGRP species were applied in three concentrations of 30 nM, 3 nM and 0.3 nM at a flow rate of 30 μL/min or in a single concentration of 25 nM per cycle as shown in FIG. 2. The dilutions were injected with association times of 180 s and dissociation times of 5400 sec to obtain ka and kd information. Regeneration of the chip surface was achieved by injecting 6 M Guanidinium-HCl+0.25 M NaOH (120 s) with a flow rate of 10 μL/min. Injection of regeneration solutions was followed by an extra wash step with HBS-EP+(1×; BR-1006-69; GE Healthcare) running buffer and a stabilization period of 120 s.
(§3) The data were double-referenced by subtraction of the corresponding signals measured for the control channel (loaded with Biotin CAPture reagent only) and by subtraction of buffer injections from the binding responses. Association rate constant ka and dissociation rate constant kd for the binding reaction were determined using Biacore T200 Evaluation Software V2.0 for data processing and kinetic fitting. The data were globally fit with 1:1 binding model.

| Binder | Kd [nM] | koff [s⁻¹] | kon [M⁻¹ s⁻¹] |
| --- | --- | --- | --- |
| B1 | 0.031 | 8.44e-05 | 2.75e+06 |
| B2 | 0.024 | 3.02e-05 | 1.25e+06 |
| B3 | 0.028 | 2.41e-05 | 867000 |
| B4 | 0.016 | 2.12e-05 | 1.3e+06 |
| B5 | 0.038 | 3.1e-05 | 807000 |
| B6 | 0.015 | 2.01e-05 | 1.31e+06 |
| B7 | 0.015 | 2.08e-05 | 1.43e+06 |
| B8 | 0.009 | 1.3e-05 | 1.39e+06 |

Biological target: T2, human beta CGRP (SEQ ID NO: 81)
Experiment: SPR, 37 C, mutein captured, CGRP analyte
Protocol: as §1, §2, §3

| Binder | Kd [nM] | koff [s⁻¹] | kon [M⁻¹ s⁻¹] |
| --- | --- | --- | --- |
| B1 | 0.001 | 1.44e-05 | 1.36e+07 |
| B2 | 0.001 | 6.67e-06 | 4.56e+06 |
| B3 | 0.004 | 7.89e-06 | 2.18e+06 |
| B4 | 0.005 | 1.01e-05 | 2.02e+06 |
| B5 | 0.011 | 2.26e-05 | 2.04e+06 |
| B6 | 0.003 | 7.6e-06 | 2.44e+06 |
| B7 | 0.004 | 9.01e-06 | 2.52e+06 |
| B8 | 0.001 | 4.11e-06 | 2.84e+06 |

Biological target: T3, rat beta CGRP (SEQ ID NO: 83)
Experiment: SPR, 37 C, mutein captured, CGRP analyte
Protocol: as §1, §2, §3

| Binder | Kd [nM] | koff [s⁻¹] | kon [M⁻¹ s⁻¹] |
| --- | --- | --- | --- |
| B1 | 0.012 | 5.99e-05 | 5.18e+06 |
| B2 | 0.006 | 1.21e-05 | 2.01e+06 |
| B3 | 0.013 | 1.84e-05 | 1.38e+06 |
| B4 | 0.008 | 1.33e-05 | 1.64e+06 |
| B5 | 0.018 | 2.64e-05 | 1.5e+06 |
| B6 | 0.006 | 9.98e-06 | 1.56e+06 |
| B7 | 0.007 | 1.22e-05 | 1.69e+06 |
| B8 | 0.008 | 1.34e-05 | 1.74e+06 |

Biological target: T4, human alpha CGRP (SEQ ID NO: 80)
Experiment: SPR, 37 C, mutein captured, CGRP analyte
Protocol: as §1, §2, §3

| Binder | Kd [nM] | koff [s⁻¹] | kon [M⁻¹ s⁻¹] |
| --- | --- | --- | --- |
| B1 | 0.011 | 3.66e-05 | 3.34e+06 |
| B2 | 0.005 | 1.07e-05 | 2.26e+06 |
| B3 | 0.012 | 1.75e-05 | 1.45e+06 |
| B4 | 0.006 | 1.65e-05 | 2.68e+06 |
| B5 | 0.018 | 2.59e-05 | 1.43e+06 |
| B6 | 0.013 | 1.99e-05 | 1.5e+06 |
| B7 | 0.009 | 1.4e-05 | 1.6e+06 |
| B8 | 0.011 | 1.84e-05 | 1.64e+06 |

Biological target: T1, rat alpha CGRP (SEQ ID NO: 82)
Experiment: cell-based or functional assay

| Binder | IC50, CGRP-induced cAMP production, L6 cells [nM] |
| --- | --- |
| B1 | 0.06 |
| B9 | 0.06 |
| B2 | 0.07 |
| B3 | 0.08 |
| B4 | 0.06 |
| B6 | 0.05 |
| B7 | 0.07 |
| B8 | 0.07 |

Biological target: T2, human beta CGRP (SEQ ID NO: 81)
Experiment: cell-based or functional assay

| Binder | IC50, CGRP-induced cAMP production, SK-N-MC cells [nM] |
| --- | --- |
| B1 | 0.23 |
| B9 | 0.29 |
| B2 | 0.21 |
| B3 | 0.17 |
| B4 | 0.19 |
| B5 | 0.12 |
| B6 | 0.26 |
| B7 | 0.19 |
| B8 | 0.2 |

Biological target: T3, rat beta CGRP (SEQ ID NO: 83)
Experiment: cell-based or functional assay

| Binder | IC50, CGRP-induced cAMP production, L6 cells [nM] |
| --- | --- |
| B1 | 0.11 |
| B9 | 0.14 |
| B2 | 0.17 |
| B3 | 0.11 |
| B4 | 0.16 |
| B6 | 0.16 |
| B7 | 0.16 |
| B8 | 0.17 |

Biological target: T4, human alpha CGRP (SEQ ID NO: 80)
Experiment: cell-based or functional assay

| Binder | IC50, CGRP-induced cAMP production, SK-N-MC cells [nM] |
| --- | --- |
| B1 | 0.11 |
| B9 | 0.19 |
| B2 | 0.14 |
| B3 | 0.14 |
| B4 | 0.15 |
| B5 | 0.1 |
| B6 | 0.16 |
| B7 | 0.12 |
| B8 | 0.18 |

Biological target: T2, human beta CGRP (SEQ ID NO: 81)
Experiment: SPR as in Example 5
Protocol: as §1, §2

| Binder | Kd [nM] |
| --- | --- |
| B10 | 0.05 |
| B11 | 0.075 |
| B1 | 0.003 |
| B5 | 0.007 |

Biological target: T4, human alpha CGRP (SEQ ID NO: 80)
Experiment: SPR as in Example 5
Protocol: as §1, §2

| Binder | Kd [nM] |
| --- | --- |
| B10 | 0.065 |
| B11 | 0.109 |
| B1 | 0.02 |
| B5 | 0.038 |

Biological target: T2, human beta CGRP (SEQ ID NO: 81)
Experiment: cell-based or functional assay
Remark: another data set of the same source

| Binder | cAMP assay IC50, SK-N-MC cells [nM] |
| --- | --- |
| B10 | 0.91 |
| B11 | 1.32 |
| B1 | 0.13 |
| B5 | 0.12 |

Biological target: T4, human alpha CGRP (SEQ ID NO: 80)
Experiment: cell-based or functional assay
Remark: another data set of the same source

| Binder | cAMP assay IC50, SK-N-MC cells [nM] |
| --- | --- |
| B10 | 0.14 |
| B11 | 0.22 |
| B1 | 0.09 |
| B5 | 0.1 |
